These results are taken from the supplement of paper PMC11502859.
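Further: lentiviral eGFP-IRES-mCherry reporter pool sorted by FACS 96 h post-transduction, gated on mCherry-high cells, Illumina read counts normalized per million, median across four biological replicates.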

The data set has as its system HEK293T. Kind of data set: median enrichment of reporter reads in eGFP-reduced (low/intermediate) vs eGFP-high sorted cells (eGFP-extension fusion abundance) (ratio); higher = stronger loss of eGFP-fusion protein abundance (more destabilising extension).
On to WRFLLKLTLFHLSF [VHL], for which the median enrichment was 9.11.
Take YDHPTTRSAANSGLSLGVAPSLLLPLN [TRIB3]: the median enrichment amounted to 6.29.
As for KELFQFIE [FOXJ3], the figure is 0.495.
As for “YKHESFIHTFRQAREVQQVTAKGGNCSHLPPILPAENPDCIQCPQCSHHFAPKVAEQHIPKCKTIKNCLPPLRKHYS [ZC2HC1C]”, the median enrichment was 0.72.
As for QNNVSYFSIKDHLKLLIPNIN [DMAC2L], the figure is 12.2; as for KSFPLTLLQIGL [PTHLH], 19.8.
To WATLSVGFFLEDSTLLPHVLSQLQS [CSTF1] belongs 4.6; to “PWPHQWHRGAPATGWPSGQPEHQGHCQPAAEAGEQDRDRPQRALPGQPSGFLRDGGRAGGRWRGMVDVPKRCQRAAGFRILLC [DECR2]”, 3.51.
To SGCHGRLSPSIL [KRTAP6-1] belongs 0.506; to YPHRGAGEGALDN [TMEM203], 0.51; to WQQPQG [CCNB3], 0.678.
YNLLLIIISEIISGSPWTTS [ZIC5]: the median enrichment was 5.16.
As for LLHERMQRMQFPGCAVDFFQQV [CEP112], the figure is 20.7; as for LMDHG [GLUD2], 1.6; as for TTTTTTTT [Thr08], 0.414.
As for YKLVLCSG [ZDBF2], the figure is 6.14.
On to SQSG [PARD6A], for which the median enrichment turned out to be 1.41.
As for “WADPVGIRAAPSGAGTAGTAAILLLLVFFLLSKINCGNILVSCDVRCSFVVKFAIDIEIMTSVFPEIKHVSTQDFLDHSRKCQ [KISS1R]”, the figure is 10.9; as for YKCEECGKAFKWSSHLTIH [ZNF93], 6.32; as for SRFCHVNVSLSGLQLRRKRRKT [SMIM11A], 5.41.
On to RTFATVYFKNKFKLFYHFI [ABCB4], for which the median enrichment was found to be 7.31.
To RTSARPARPFPTST [ISLR2] belongs 0.582.
As for WKRD [RER1], the figure is 0.349.
As for “QRLMQERCEGLRAGDCAILKPPLDLRTPRVGTSRVVGQPGSLYCGFSEA [MEIS3]”, the figure is 6.79; as for YMQKWIK [KCNMB2], 11.9; as for “LECSPFPCPGWQGRGRVKGMCCNTEDRKKKPLDTARDGG [ORMDL3]”, 48.4.
For “SARSAVSSQWILVNWWRLADTLEKPKPESLLFSLFSCLCSVSLNTTFSAMVCG [MRFAP1]”, the median enrichment stood at 5.22.
As for LTQPRGGSLVFVLKFLVPNVFSSTFS [IL36G], the figure is 15.7; as for “WGRDSVPLAVLPSLLVCQASPPTTPHQATPAASAFLGAERQPRPPVPSPPSHHRSSAPGRTVWPLPVPAMGSGWTPWAPPIAK [CAPN1]”, 7.5.
To SDS [POLE2] belongs 0.445; to SGGV [DHRS2], 0.226; to GACFAVGHPAKQANMETTCNLARLYLV [DDX3X], 17.6.
To SRGSHAPPPPCHSLGPHLPLP [SDC1] belongs 0.282; to LVISSVFCFLF [MS4A1], 7.46.
Turning to LKKNPRKNKS [NME5], the median enrichment stood at 1.1.
To “YVAMVKVSVAAAAMASRRRCWDCFALEPASGCPLQWLCYCMDCILDFMCMSQ [DYNLL2]” belongs 10.8; to WSGKLGAFGLKGRMFPVFLDNKLGK [PKHD1], 11.8; to “EGLATPVKAVLLLDTISSSGRAVERESNFLLEEYLCLLTLN [CDC14A]”, 6.01.
In the case of “RDSSACPPWGPCCRPGGQSRWERHSQGQGKEGTHTHTHTHTHTHTYILLSLPKPIRQVNGQCLLGPWTHFLLGEAAS [GLP1R]”, the median enrichment was found to be 3.35.
As for “RYPGASPVTVTAAPPPRLLSASNHLDSPEESPMETALIRCPAAARGPRSPRVPLKECLGHIRPARSRERAPNARPG [CUX1]”, the figure is 4.54; as for YELNKNKIQV [CXorf66], 0.339; as for CSSVYELPFHSAFRNYILAFIFNLPTYFK [ATM], 8.5.
